Patent publication US20220042033A1, “COMPOSITION AND METHOD FOR CONFERRING AND/OR ENHANCING TOLERANCE AGAINST HERBICIDES BY USING VARIANTS OF PPO” (FarmHannong Co., Ltd., priority 2017, published 2022)

Tested on: ApPPO1
Experiment: Herbicide tolerance test of ApPPO1 wild type and variants in PPO-deficient E. coli BT3(ΔPPO), growth on herbicide-containing LB agar
Format: cell-based, Auxenochlorella protothecoides
Conditions: relative to ApPPO1 WT, dark; for Herbicide tolerance, flumioxazin: up to 100 μM (FIGS. 7-12); for Herbicide tolerance, tiafenacil: up to 200 μM (FIGS. 7-12); for Herbicide tolerance, sulfentrazone: up to 400 μM (FIGS. 7-12)
Procedure: Then, the extent of tolerance was evaluated.

Molecule | Herbicide tolerance, flumioxazin | Herbicide tolerance, tiafenacil | Herbicide tolerance, sulfentrazone
V213C + Y422T: ApPPO1 (SEQ ID NO: 1) variant (protein, Synthetic (Protoporphyrinogen IX oxidase (ApPPO1) of Auxenochlorella protothecoides)) MPFTHLKPLNRLLGSPRARHPHVAPQAVSVTNTSTTRPGGRSSAPGIPGDAEYDVVIVGAGISGLTTAQALAKQYSDAVPRLLVTEARDCVGGNIITRRDGGYQWEEGPNSFQPSDAVLRAAVDAGVADRLVLGDPKAPRYVYWGGRLRATPSGPDVLTFDLLSLWGKLRAGLGAAGFKAPLPEREESVKEFVTRNLGEEVFQRLIEPFCSGCYAGDPAKLSMKAAFGKVYDLEKGGGSIVGGVLALMKARKQKPPEPRPADLPPKPKGQTVGSFDKGLVTLPSAIAEELGDRVVTGWKLESIDRSGDRFQLTYDTPQGRKKVSARSVALTVPAYTAASLLESRFPKLGKALSSIYYPPVASVALSYPETAILPERLGSDGHLAGFGQLHPRTQGVTTLGTIYASSLFPGRVPEGKVLLLSTFGGATNTRVATMPHGEIVSQVDKDLRKMLIRSDAESPHTVNVTVWPRAIPQFNVGHTDLIQEAKDDLASQGWQGLHLGGNYVAGVALGKCMEAGYKQAAELASHVKSLAT | +++++ (more than 10,000 fold higher tolerance) | +++++ (more than 10,000 fold higher tolerance) | ++++ (1,000-9,999 fold higher tolerance)
A215L + Y422I: ApPPO1 (SEQ ID NO: 1) variant (protein, Synthetic (Protoporphyrinogen IX oxidase (ApPPO1) of Auxenochlorella protothecoides)) MPFTHLKPLNRLLGSPRARHPHVAPQAVSVTNTSTTRPGGRSSAPGIPGDAEYDVVIVGAGISGLTTAQALAKQYSDAVPRLLVTEARDCVGGNIITRRDGGYQWEEGPNSFQPSDAVLRAAVDAGVADRLVLGDPKAPRYVYWGGRLRATPSGPDVLTFDLLSLWGKLRAGLGAAGFKAPLPEREESVKEFVTRNLGEEVFQRLIEPFCSGVYLGDPAKLSMKAAFGKVYDLEKGGGSIVGGVLALMKARKQKPPEPRPADLPPKPKGQTVGSFDKGLVTLPSAIAEELGDRVVTGWKLESIDRSGDRFQLTYDTPQGRKKVSARSVALTVPAYTAASLLESRFPKLGKALSSIYYPPVASVALSYPETAILPERLGSDGHLAGFGQLHPRTQGVTTLGTIYASSLFPGRVPEGKVLLLSIFGGATNTRVATMPHGEIVSQVDKDLRKMLIRSDAESPHTVNVTVWPRAIPQFNVGHTDLIQEAKDDLASQGWQGLHLGGNYVAGVALGKCMEAGYKQAAELASHVKSLAT | ++++ (1,000-9,999 fold higher tolerance) | ++++ (1,000-9,999 fold higher tolerance) | ++++ (1,000-9,999 fold higher tolerance)
A215L + Y422T: ApPPO1 (SEQ ID NO: 1) variant (protein, Synthetic (Protoporphyrinogen IX oxidase (ApPPO1) of Auxenochlorella protothecoides)) MPFTHLKPLNRLLGSPRARHPHVAPQAVSVTNTSTTRPGGRSSAPGIPGDAEYDVVIVGAGISGLTTAQALAKQYSDAVPRLLVTEARDCVGGNIITRRDGGYQWEEGPNSFQPSDAVLRAAVDAGVADRLVLGDPKAPRYVYWGGRLRATPSGPDVLTFDLLSLWGKLRAGLGAAGFKAPLPEREESVKEFVTRNLGEEVFQRLIEPFCSGVYLGDPAKLSMKAAFGKVYDLEKGGGSIVGGVLALMKARKQKPPEPRPADLPPKPKGQTVGSFDKGLVTLPSAIAEELGDRVVTGWKLESIDRSGDRFQLTYDTPQGRKKVSARSVALTVPAYTAASLLESRFPKLGKALSSIYYPPVASVALSYPETAILPERLGSDGHLAGFGQLHPRTQGVTTLGTIYASSLFPGRVPEGKVLLLSTFGGATNTRVATMPHGEIVSQVDKDLRKMLIRSDAESPHTVNVTVWPRAIPQFNVGHTDLIQEAKDDLASQGWQGLHLGGNYVAGVALGKCMEAGYKQAAELASHVKSLAT | + (1-9 fold higher tolerance) | + (1-9 fold higher tolerance) | ++++ (1,000-9,999 fold higher tolerance)
A215C + Y422I: ApPPO1 (SEQ ID NO: 1) variant (protein, Synthetic (Protoporphyrinogen IX oxidase (ApPPO1) of Auxenochlorella protothecoides)) MPFTHLKPLNRLLGSPRARHPHVAPQAVSVTNTSTTRPGGRSSAPGIPGDAEYDVVIVGAGISGLTTAQALAKQYSDAVPRLLVTEARDCVGGNIITRRDGGYQWEEGPNSFQPSDAVLRAAVDAGVADRLVLGDPKAPRYVYWGGRLRATPSGPDVLTFDLLSLWGKLRAGLGAAGFKAPLPEREESVKEFVTRNLGEEVFQRLIEPFCSGVYCGDPAKLSMKAAFGKVYDLEKGGGSIVGGVLALMKARKQKPPEPRPADLPPKPKGQTVGSFDKGLVTLPSAIAEELGDRVVTGWKLESIDRSGDRFQLTYDTPQGRKKVSARSVALTVPAYTAASLLESRFPKLGKALSSIYYPPVASVALSYPETAILPERLGSDGHLAGFGQLHPRTQGVTTLGTIYASSLFPGRVPEGKVLLLSIFGGATNTRVATMPHGEIVSQVDKDLRKMLIRSDAESPHTVNVTVWPRAIPQFNVGHTDLIQEAKDDLASQGWQGLHLGGNYVAGVALGKCMEAGYKQAAELASHVKSLAT | +++++ (more than 10,000 fold higher tolerance) | +++++ (more than 10,000 fold higher tolerance) | ++++ (1,000-9,999 fold higher tolerance)
A215C + Y422T: ApPPO1 (SEQ ID NO: 1) variant (protein, Synthetic (Protoporphyrinogen IX oxidase (ApPPO1) of Auxenochlorella protothecoides)) MPFTHLKPLNRLLGSPRARHPHVAPQAVSVTNTSTTRPGGRSSAPGIPGDAEYDVVIVGAGISGLTTAQALAKQYSDAVPRLLVTEARDCVGGNIITRRDGGYQWEEGPNSFQPSDAVLRAAVDAGVADRLVLGDPKAPRYVYWGGRLRATPSGPDVLTFDLLSLWGKLRAGLGAAGFKAPLPEREESVKEFVTRNLGEEVFQRLIEPFCSGVYCGDPAKLSMKAAFGKVYDLEKGGGSIVGGVLALMKARKQKPPEPRPADLPPKPKGQTVGSFDKGLVTLPSAIAEELGDRVVTGWKLESIDRSGDRFQLTYDTPQGRKKVSARSVALTVPAYTAASLLESRFPKLGKALSSIYYPPVASVALSYPETAILPERLGSDGHLAGFGQLHPRTQGVTTLGTIYASSLFPGRVPEGKVLLLSTFGGATNTRVATMPHGEIVSQVDKDLRKMLIRSDAESPHTVNVTVWPRAIPQFNVGHTDLIQEAKDDLASQGWQGLHLGGNYVAGVALGKCMEAGYKQAAELASHVKSLAT | +++ (100-999 fold higher tolerance) | +++ (100-999 fold higher tolerance) | +++ (100-999 fold higher tolerance)
R140A + V213C + Y422I: ApPPO1 (SEQ ID NO: 1) variant (protein, Synthetic (Protoporphyrinogen IX oxidase (ApPPO1) of Auxenochlorella protothecoides)) MPFTHLKPLNRLLGSPRARHPHVAPQAVSVTNTSTTRPGGRSSAPGIPGDAEYDVVIVGAGISGLTTAQALAKQYSDAVPRLLVTEARDCVGGNIITRRDGGYQWEEGPNSFQPSDAVLRAAVDAGVADRLVLGDPKAPAYVYWGGRLRATPSGPDVLTFDLLSLWGKLRAGLGAAGFKAPLPEREESVKEFVTRNLGEEVFQRLIEPFCSGCYAGDPAKLSMKAAFGKVYDLEKGGGSIVGGVLALMKARKQKPPEPRPADLPPKPKGQTVGSFDKGLVTLPSAIAEELGDRVVTGWKLESIDRSGDRFQLTYDTPQGRKKVSARSVALTVPAYTAASLLESRFPKLGKALSSIYYPPVASVALSYPETAILPERLGSDGHLAGFGQLHPRTQGVTTLGTIYASSLFPGRVPEGKVLLLSIFGGATNTRVATMPHGEIVSQVDKDLRKMLIRSDAESPHTVNVTVWPRAIPQFNVGHTDLIQEAKDDLASQGWQGLHLGGNYVAGVALGKCMEAGYKQAAELASHVKSLAT | +++++ (more than 10,000 fold higher tolerance) | +++++ (more than 10,000 fold higher tolerance) | ++++ (1,000-9,999 fold higher tolerance)
R140A + V213C + Y422M: ApPPO1 (SEQ ID NO: 1) variant (protein, Synthetic (Protoporphyrinogen IX oxidase (ApPPO1) of Auxenochlorella protothecoides)) MPFTHLKPLNRLLGSPRARHPHVAPQAVSVTNTSTTRPGGRSSAPGIPGDAEYDVVIVGAGISGLTTAQALAKQYSDAVPRLLVTEARDCVGGNIITRRDGGYQWEEGPNSFQPSDAVLRAAVDAGVADRLVLGDPKAPAYVYWGGRLRATPSGPDVLTFDLLSLWGKLRAGLGAAGFKAPLPEREESVKEFVTRNLGEEVFQRLIEPFCSGCYAGDPAKLSMKAAFGKVYDLEKGGGSIVGGVLALMKARKQKPPEPRPADLPPKPKGQTVGSFDKGLVTLPSAIAEELGDRVVTGWKLESIDRSGDRFQLTYDTPQGRKKVSARSVALTVPAYTAASLLESRFPKLGKALSSIYYPPVASVALSYPETAILPERLGSDGHLAGFGQLHPRTQGVTTLGTIYASSLFPGRVPEGKVLLLSMFGGATNTRVATMPHGEIVSQVDKDLRKMLIRSDAESPHTVNVTVWPRAIPQFNVGHTDLIQEAKDDLASQGWQGLHLGGNYVAGVALGKCMEAGYKQAAELASHVKSLAT | +++++ (more than 10,000 fold higher tolerance) | +++++ (more than 10,000 fold higher tolerance) | ++++ (1,000-9,999 fold higher tolerance)
